Biological target: bovine thrombin (bovine) (UniProt P00735)

Row | Substance | Fibrin Clot Inhibition
1 | Suc-Tyr-Glu-Azd-Ile-Pro-Glu-Glu-Ala-Cha-D-Glu-OH (peptide) | 0.51
2 | Suc-Tyr-Glu-Pip-Ile-Pro-Glu-Glu-Ala-Cha-D-Glu-OH (peptide) | 1.9
3 | Suc-Tyr-Glu-Pro-Ile-Pip-Glu-Glu-Ala-Cha-D-Glu-OH (peptide) | 0.88
4 | Suc-Tyr-Glu-Pro-Ile-Tiq-Glu-Glu-Ala-Cha-D-Glu-OH (peptide) | 0.63

Continued, values first:

Row | Fibrin Clot Inhibition | Substance
5 | 0.38 | Suc-Tyr-Glu-Pro-Ile-Azd-Glu-Glu-Ala-Cha-D-Glu-OH (peptide)
6 | 0.82 | Suc-Tyr-Glu-Tiq-Ile-Pro-Glu-Glu-Ala-Cha-D-Glu-OH (peptide)
